Experiment: yeast display, Sf9 membrane polyspecificity reagent, FACS + sequencing; frameworks hold sequencing errors
How it was run: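 Sorting gates, low and high (top ~1%), were placed on anti-HA fluorescence to track expression and on streptavidin fluorescence to track reagent binding. A clone's polyreactivity label is taken from the gate it came out of. The reagent was 10% biotinylated, detergent-solubilized Sf9 membrane, applied for 1 hour at 4 °C to galactose-induced yeast display cells.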

Sequence	polyreactivity (PSR sort gate)
QFQRVESGGGLVQAGGSLRLTCAASGIIFVYNAMGWFRQATGKERELVAAINWRGDGTYYADSVKGRFTISRDNAKNTVYLQMNSLKQEDTAVYYCNAVRFRPNSHYRPVGYDYWGQGTQVTVSS	low polyreactivity
QVQLVESGGGLVQAGGSLGLSSAASGIIFLTYAMGWYSQAPGKDRELVAAINSTGSTNYADSVKGRFTISRDNAKNTVYLQMNSLTPEDTAVYYCAAEGLPYVRVFDFVSRYDYWGQGTQVNVSS	low polyreactivity
QVQLVESGGGLVQARGSLRLSCAASGSTFEHNAMGWYRQGPGKERELVAAISYSGGRTYYADSVKGRFTISRDNAKNTVYLQMNSLKTEDTAVYYCAAPYYSWPYYYWGLGTQVTVSS	high polyreactivity
QVQLVESGGGVQAGCSLRLSCAASGRTFVPYGMGWYRQAPGKERELVAAISSIGDSTSYADSVKGRFTISRDNAKNTVYLQMNSLKPEDSAVYYCADVTWYDEYDSWGKGTQVTVSS	low polyreactivity
QVQLVESGGGLVQAGGSLRLIFAASGRTFFSYVMGWYIQAPGKERELVAAITWRGGSTYYADSVKGRFTISRDNAKNTVYLQMNSLKPEDTAVYYCAAPSHGSTSDRYYKFYYWGQGTQVTVSS	high polyreactivity
QVQLVESRGGLVQAGGSLRLSCAASGFNFPHYAMGWYRQAPGKERELVAAISKSGDSTYYADSVKARFTISRDNAKNTVYLQMNSLKPEDTAVYYCARRGRSVRWKYDYWGQGTQVTVSS	low polyreactivity
QVQLVESGGGLVQAGGSLRLSCASSGRTFVWNAMGWYRQAPGKERELVAAIDWSGGSTYYADSVKGRFTISRDYAKITVYLQMNSLKPEDTAVYYCAKEYWYRALWYNYWGQGTQVTVSS	high polyreactivity
QVQLVESGGGLVQAGGSLRLSCAASGSINNRNAMGWYIQAPGKERELVAAITRRGGSTYYADSVKGRFTISRDNAKNTVYLQMNSLKPEETAVYYFNAVKGLSSWSYEYWGQGSQVTVSS	high polyreactivity
QVQLVESGGGLVQAGGSLRLSCAASGITFWGYVMGWYRQAPGKERELVAAISSSGGRTYYADSVKGRFTISRDNAKNTVYLQMNSLKPEDTAVYYCAARFLYANRYSVDYDYWGQGTQVTVSS	high polyreactivity
QVQLVESGGGLVQAGGSLRLSCADSGRIFRYYAMGWYRQAPGKERELVAAISGSGGSTYYADSVKGRFTISRDNSKNTVYLHMNSLKPEDTSVYYCAAAEYLYTLPYGYWGQGTQVTVSS	low polyreactivity
QVQLVESGGGLVQAGGSLRLSCAASGIIFRGYVMGWYRQAPGKERELVADISRGGSTYYADSVKGRFTISRDNAKNTVYLQMNSLKPEDTAVYYCATAGPLWFYWGYDYWGQGTQVTVSS	low polyreactivity
QVQLVESGGGLVQAGGSLSLSCAASGSIFGTNAMGWYRQAPGKERELVAAISSSGASTYYADSVKGRFTISRDNAKNSVYLQMNSLKPEDTAVYYCARGYTYQSSSFYYWGQGTQVTVSS	low polyreactivity
QVQLEESGGGLVQAGGSLRLSCAASGSIFGTYAMGWYRQAPGKEREFVAAISWSDGSTYYADSVKGRFTISRDNAKNTVYLQMNSLKPEDTAVYYCAVRRVGSIYIDRYIYVVADYDYWGQGTQVTVSS	low polyreactivity
QVQLVDSGPGLVQAGGSLRLSCAASGGTFQPNARGCYRQAPGKERELVAAISGSGDSTYYADSVKGRFTISRDNAKNTVYLQMNSLKPEDTAVYYCNAYFWFSRYAWGDTSYDYWGQGTQVTVSS	low polyreactivity
QVQLVESGVGLVQAGRSLRLSCAASGFTFGAYAMGWYRQAPGKERELVAAITRRGGSTYYADSVKGRFTISRDNAKNTVYLQMNSLKPEDTAVYYCAARRGRVLTKVSGYYSWGQGTQVTVSS	high polyreactivity
QVQLVESGGGLVQAGGSLRLSCAASGLTFWFNAMGWYRQAHGKEREFVAAISLSSTYYADSVKGRFTISRDNAKNTVYLQMNSLKPEDTAVYYCAAELSVSLYDFDYWGQGTQETVSS	high polyreactivity
QVQLVESGGGRVQAGGSLRLSCAASGSIFTTYTMGWDRQAPGKESEWVAAITSSSGSTYYADSVKGRFTISRDNAKNTVYLQMNSLKPEDTAVYYCAARGYFDFSRYDSWGHGTQVTVSS	low polyreactivity
QVQLVESGGGLVQAGGSLRLSCAASGFTFYWYDMGWYRQAPGKERELVSTISTGGGTNYADSVKGRFTISRDNAKNTVYLQMNSLKPEDNAVYYCAADGSAGYQWGYDFEGDYWGQGTEVTVSS	high polyreactivity
QVQLVESGGGLVQAGGSLRLSCAASGSIFEGNAMGWYREAPGKERELVASISGDGSTNYADSVKGRFTISRDNAKNTVYLQMNSLKPEDTAVYYCNADTISEPGFHMDYWGQGTQVTVSS	low polyreactivity
QVQLVESGGGLVQAGGSIRLICAASGSIFRLYAKGWYRQAPGKEREFVAAISSRGGSTYYADSVKGRFTISRDKAKNTVYLEMNSLKPEDSAVDYCAVYGYHEGGYWGQGTQVTVSS	high polyreactivity
QVQLVESGGGLVQAGGSLRLSCAASGIFAWNAMGWYRQAPGKERELVAAISWSGGSTYADSVKGRFTISRDNAKNTVYLQMNSLKPEDTAVYYCAKVSSLTSKSDYWGQGTQVTVSS	low polyreactivity
QVQLVESGGGLVQAGGSLRLSCAASGSTFNYYAMGWYRQAPGKERELVAVITNGGTTYYADSVKGRFTISRDNAKNTVYLQMNSLKPEDTAVYYCAAALLGRSKRFYYWGQGTQVTVSS	high polyreactivity

Sequence	polyreactivity (PSR sort gate)
QVEHVDSGRGLVQAGGSLRLSCAASGSIIRSYAMGWYRQAPGKERELVAAISWRGGRTYYADSLKGRFTISRDNAKNTVYLQMNSLKPEDTAVYFCAARKRAQQGTRDHDYWGQGTQLTVSS	high polyreactivity
QVQLVESGGGLVQAGGSLRLSCAASGSTFEYYAMGWYRQAPGKEREFVAAITSTGGSTHYADSVKGRFTISRDNAKNTVYLQMNSLKPEDTAVYVCGKRSYGQTRAYSAGNYWGQGNQVTVSS	low polyreactivity
QVQLVESRGGLVQAGGSHRLSCAASGSIIYGNTMGWYRQAPGKERELVAAIRRGGSTNYADSVKGRFTISRDNAKNTVYLQMNSMKPEDTAVYYCAKGHPSDFGYWGQGTQVNVSS	high polyreactivity
QVQLVESGVGLVQAGGSLRLSCASSGFIFDTYAMGLYRQAPGKERELVAVISSGGSTYYADSVKGRFTISRDNAKNTVYLQMNSLKPEDTAVYYCAADSGYLGIYGDEYSWGQGTQVTVSS	low polyreactivity
QVQLVESGGGLVQAGRSLRLSCAASGSTFVHNAMGWYRQAPGKERELVAAISRSGGRTYYADSVKGRFTISRDNAKNTVYLQMNSLKPEDTAVYDCAAGLHWTRYPSAHYLFEYWGQGTQVTVSS	high polyreactivity
QVQLVESGGGLVQAGGSLRLSCAASGRIFLYYAMGWYRQAPGKERELVAAISRRGASTYYADSVKGRFTITRDNAKNTVYLQMNSLKPEDTAVYYCGSVPGKSGDYWGQGTQVTVSS	high polyreactivity
QVQLVESGGGLVQAGGSLRLSCAASGFIFYTYAMGWYRQAPGKERELVAGINSGGDTNYADSVKGRFTISRDNAKNTVYLQINSLKPEDTAVYYCAATSYVHKYYGYFGAIKYEYWGHGTQVTVSS	low polyreactivity
QVQLVESGGGLVQAGGSLRLSCAASGNTYPVYAMGWYRHASGQERELDATITSGGSTNYADSVKGRFTLSRDNAKTSVYYQMNSLSPEDTAVYYCARRAVYSKRRYDYWGQGTQVTVSS	low polyreactivity
QVQLVESGGGLVQAGGSLRLSCAATGRTFTYYALGGYRQAPGKQRELVAAISTSGGSTYYADSVKGRFTISRDNAKNTVYLQMNSLKPEDTAVYYCAASPYLRFLYGGFGYWGLGTQVTVSS	high polyreactivity
QVQLVESGGGLVQAGGSLRLSCAASGSTFPTNAMGWYRQAPGKERELVAGITEGGSSTYYADSVKGRFTISRDNAKNTVYLQMTSLKPEDTAVYYCAAAARAGLKRYYYWGQGTQVTVSS	high polyreactivity
QLHLVESGGGLVQAGGSLRLSCAASGRIFGVYAMGWYRQAPGKERELVASITWRGGSTYYADSVKGRFTISRDNAKNTVYLQMNSLKPEDTAVYYCAAAYWYAYEYWGQGTQVTVSS	high polyreactivity
QVQLVETGGGLVQAGGSLRLSCAASGRIIDTYAMGWYRQAPGKERELVAAITRRGGSTYYADSVKGRFTISRDNAKNTVYLQMNSLKPEDTAVYYCAKSLVNRHYDYWGQGTQVTVSS	low polyreactivity
QVQLVESRGGLVQAGGSLRLSCAASGSIFGFYAMGWYRQAPGKERELVAAISSDGGSTYYADSVKGRFTISRDNAKNTVYLQMNSLKPEDTAVYYCAAAHGSIYDSTYYEYYYWGQGTQVTVSS	low polyreactivity
QVQLVESGGGLVQAGGSLRLSCAASGSTLVVNGMGWYRQAPGKERELVASISSDGSTNYADSVKGRFTISRDNAKNTVYLQMNSLKPEDTAVYYCASDEGTGQASLSSNLYDYWGQGTQVTVSS	low polyreactivity
QVQLVESGGGLLQAGGSLRLSCAASGRIFVVYAMGWYRQAPGKERELVASITWRGGSTYYADSVKGRFTISRDNAKNTVYLQMNSLKPEDTAVYYCAAELDVYVSIGSRFHFDYWGQGTQVTVSS	low polyreactivity
QVQLVESGGGLVQAGGSLRLSCAASGRTFTYYAMGWYIQAPGKERELVAAITSGGRTYYADSVKGRFTISRDNAKNHVYLQMNSLKPEDTAVYYCAARRIRDYYRSYDYWGQGTQVTVSS	high polyreactivity
QVQLVESGGGLVQAGGSLRLSCAASGRIFGYNAMGWYRQAPGKERELVASIRSGGSTNYADSVKGRFTISRDNAKNTVYLQMNSLKPEDTAVYYCAKSYRWHLNGGLGWRLGNYWGQGTQVTVSS	high polyreactivity
QVQLVESGGGLVQAGGSLRLSCAASVFTFSRYAMGWYRQAPGKERELVAAITSRGGSTYYADSVKGRFTISRDNAKNTVYLQMNSLKPEDTAVYYCAASGRNRKDGLYEYYYWGQGTQVTVSS	high polyreactivity
QVQLVESGGGLVQAGGSLRLSCAASGRTFAFYAMGWYRPAPGKERDLVASISSSGDRTYYADSVKGRFTISRDNAKNTVYLQMNSLKPEDTAVYYCNRVEGGAYGSNFDYWGQATQVTVSS	high polyreactivity
QVQLVESGGGIVQAGGSLRLSCAASGRIFDRYAMGWYRQAPGTERELVAAITGSGGRTYYADSVKGRFTISRDNAKNTVYLQMNSLKPEDTAVYYCARALGQRGYVYWGQGTQVTVSS	high polyreactivity
QVQLVESGGGLVQAGGSLRLSCAASGRIFELYAMGWYRQAPGKERELVADITTIGDSTYYADSVKGRFTISRDNAKNTVYLQMNSLKPEDTAVYYCAADPYVDSYDSWGQGTQVTVSS	low polyreactivity

Reference: the nanobody polyreactivity screen of Harvey et al. (2022)
